In assay [1] the target is Angiotensin-converting enzyme 2 (ACE2) ectodomain, Fc-tagged (human) (UniProt Q9BYF1). Description: BLI. In general terms: In BLI a coated tip is dipped into the sample, and binding shifts an interference pattern.
Assay [2] shares this target. The assay can be described thus: latex nanoparticle-enhanced turbidimetry.

Sequence of Angiotensin-converting enzyme 2 (ACE2) ectodomain, Fc-tagged (human) (Q9BYF1 18-740): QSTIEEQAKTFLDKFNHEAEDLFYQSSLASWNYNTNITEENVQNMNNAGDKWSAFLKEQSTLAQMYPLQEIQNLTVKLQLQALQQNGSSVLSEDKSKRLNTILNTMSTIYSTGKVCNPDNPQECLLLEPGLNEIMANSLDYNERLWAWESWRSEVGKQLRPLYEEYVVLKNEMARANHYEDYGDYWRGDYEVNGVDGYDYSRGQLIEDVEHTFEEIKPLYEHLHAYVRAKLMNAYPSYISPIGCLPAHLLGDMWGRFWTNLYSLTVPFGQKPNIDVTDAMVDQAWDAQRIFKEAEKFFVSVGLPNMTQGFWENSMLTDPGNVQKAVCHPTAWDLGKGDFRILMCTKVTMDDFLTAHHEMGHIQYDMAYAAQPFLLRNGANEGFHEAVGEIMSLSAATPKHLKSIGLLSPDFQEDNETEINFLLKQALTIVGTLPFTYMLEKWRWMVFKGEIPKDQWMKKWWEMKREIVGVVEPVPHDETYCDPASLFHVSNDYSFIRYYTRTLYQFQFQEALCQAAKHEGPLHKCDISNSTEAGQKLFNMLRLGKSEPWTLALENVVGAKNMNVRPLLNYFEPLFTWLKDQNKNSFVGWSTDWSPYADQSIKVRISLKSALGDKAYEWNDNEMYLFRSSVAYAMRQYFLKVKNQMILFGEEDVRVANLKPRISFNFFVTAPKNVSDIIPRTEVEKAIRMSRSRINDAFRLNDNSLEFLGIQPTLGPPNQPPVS

The term Kd denotes the free concentration of one partner at which half of the binding sites on the other are occupied at equilibrium, for simple one-to-one binding. Read a low Kd as tighter binding. By koff is commonly meant the rate constant with which the complex falls apart. As a reminder, the kon is the rate constant with which the complex forms. Read a high kon as fast association. In assay [1], “Human milk lactoferrin (natural protein)” returned a Kd of 27.6 µM, an off-rate constant (koff) of 0.461 s⁻¹ and a kon of 16700 M⁻¹ s⁻¹. Further, the apparent Kobs (inhibition of RBD-ACE2 complex formation, initial rates) in assay [2] worked out at 6.3 µM.

These data come from publication PMC9141661.
